Reference: patent publication US20170088628A1, “Compositions and Methods for Identifying B Cell Malignancies Responsive to B Cell Depleting Therapy” (MedImmune, LLC, priority 2014, published 2017)
Blank lines part the entries; values can stand above or below the molecule they belong to.

Key:
[1] = test system: Chronic lymphocytic leukemia; assay: CP-1019, Chronic lymphocytic leukemia patients treated with MEDI-551 or Rituximab+Bendamustine; assay type: in vivo, human; settings: of 22 MEDI-551-treated / 12 Rituximab-treated patients
Description: miR-629 expression levels were measured in baseline peripheral blood mononucleated cell (PBMC) samples from Chronic lymphocytic leukemia patients treated with MEDI-551 or Rituximab+Bendamustine (CP-1019). • 22 MEDI-551-treated patients (10 CR/PR; 3 PD; 4 SD) • 12 Rituximab-treated patients (6 CR/PR; 2 PD; 2 SD)

ARH-77 = assay: in vitro ADCC assay; assay type: cell-based, human; settings: ARH-77, in vitro ADCC
RL = assay: in vitro ADCC assay; assay type: cell-based, human
Karpas-422 = assay: in vitro Antibody-dependent cellular cytotoxicity (ADCC) assay; assay type: cell-based, human; settings: Karpas-422, in vitro ADCC
SUD-HL-6 = assay: in vitro ADCC assay; assay type: cell-based, human; settings: SUD-HL-6, in vitro ADCC
[2] = afucosylated mAb relative to mAb anti-CD19-2; cited from earlier work
MEC-2 = assay: ADCC assay after miR-629 over-expression; assay type: cell-based, human; settings: MEC-2, miR-629 over-expressed (miR-629 mimic)
Description: (§1) FIGS. 14A-D are graphs showing the results of an antibody dependent cytotoxicity (ADCC) assay. miR-629 was overexpressed in the specified cell type, and the cells were then treated with an anti-CD19 antibody (MEDI551).
(§2) The effect of altering miR-629 on sensitivity to treatment with an anti-CD19 antibody (MEDI551) was explored. Human leukemia and lymphoma cell lines Daudi, Toledo, and RL were obtained from American Type Culture Collection (ATCC); Karpas 1106P, Karpas 422, OCI-Ly-19, MEC2 were obtained from Deutsche Sammlung von Mikroorganismen und Zellkulturen (DSMZ, Germany). Cell lines were transfected with […] of a miR-629 mimic (Karpas 1106P, Karpas 422, Daudi, MEC2, OCI-Ly-19, SU-DHL-6, and Toledo), a miR-629 hairpin inhibitor (RL and ARH-77), or respective negative control oligonucleotides (all from Dharmacon) using PrimeFect (Lonza) for 24 hours. CD19 and CD20 surface expression was determined by flow cytometry (LSRII, BD Biosciences) using their respective fluorescently labeled monoclonal antibodies. Surface expression is reported as mean fluorescent intensity (MFI) and was averaged for untransfected as well as miR-629 and negative control transfected cells.

Daudi = assay: ADCC assay after miR-629 over-expression; assay type: cell-based, human; settings: miR-629 over-expressed (miR-629 mimic)
Description: as §1, §2

Toledo = assay: ADCC assay after miR-629 over-expression; assay type: cell-based, human; settings: miR-629 over-expressed (miR-629 mimic)
Description: as §1, §2

SU-DHL-6 = assay: ADCC assay after miR-629 over-expression; assay type: cell-based, human; settings: SU-DHL-6, miR-629 over-expressed (miR-629 mimic)
Description: as §1, §2

[3] = test system: Relapsed or Refractory Advanced B-Cell Malignancies; assay: Clinical Trial No. CP204, Phase 1 dose-escalation study of MEDI-551 as a single agent; assay type: in vivo, human
Description: miR-629 expression levels were measured in baseline whole blood samples from diffuse large B cell lymphoma (DLBCL), follicular lymphoma (FL), and Chronic lymphocytic leukemia (CLL) patients treated with an anti-CD19 antibody treatment as a single agent in Clinical Trial No. CP204, A Phase 1, Dose-escalation Study of MEDI-551, a Humanized Monoclonal Antibody Directed Against CD19, in Adult Subjects With Relapsed or Refractory Advanced B-Cell Malignancies.

[4] = test system: diffuse large B-cell lymphoma cell lines; assay: in vitro ADCC assays, high versus low sensitivity cell lines; assay type: cell-based, human; settings: in other cases 1000-fold or more
Description: The following microRNAs had significant differences: miR-629; miR-99b; miR-let-7e; miR-15a; and miR-29a.

Toledo cell lines = assay: in vitro ADCC assay; assay type: cell-based, human
[5] = test system: DB (diffuse large cell lymphoma); assay: in vitro ADCC assay; assay type: cell-based, human
FccRIIIA = FccRIIIA (Homo sapiens, UniProt P08637); settings: afucosylated mAb relative to mAb anti-CD19-2; cited from earlier work
Oci-Ly-19 = assay: in vitro ADCC assay; assay type: cell-based, human; settings: Oci-Ly-19, in vitro ADCC
[6] = test system: Karpas 422 cells expressing miR-629; assay: in vitro ADCC in miR-629 over-expressing cells; assay type: cell-based, human; settings: miR-629 over-expression vs vector control
Description: FIGS. 12A and 12B are graphs. […] LDH release has been a known prognostic factor in lymphoma for many years and is measured routinely in clinical practice. […] Therefore, it is likely that miR-629 expression levels are related to the aggressiveness of the tumor. This could, in part, explain the correlation between miR-629 and response to MEDI-551.
The diffuse large B-cell lymphoma cell line Karpas-422 was transduced with a lentiviral vector over-expressing miR-629 or a scrambled miRNA control (Open Biosystems, Huntsville, Ala.) at an MOI of 2-20. Transduced cells were expanded for 1-2 weeks. Utilizing RFP, cells were sorted by fluorescence-activated cell sorting (FACS) into high miR-629 and low miR-629 populations. Clones were also generated using the limiting dilution method. Over-expression of miR-629 was evaluated by TaqMan QPCR.

Chain of FccRIIIA (P08637 17-254): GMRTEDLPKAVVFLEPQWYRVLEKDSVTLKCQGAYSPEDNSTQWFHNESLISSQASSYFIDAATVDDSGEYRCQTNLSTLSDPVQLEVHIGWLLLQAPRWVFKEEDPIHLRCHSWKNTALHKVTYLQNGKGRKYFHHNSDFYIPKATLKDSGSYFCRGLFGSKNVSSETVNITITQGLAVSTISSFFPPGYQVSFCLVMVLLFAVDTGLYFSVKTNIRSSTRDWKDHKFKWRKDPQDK

Molecule: Rituximab: anti-CD20 antibody therapy used as comparator [reference compound]
CR/PR, number of patients [1]: 6 | PD, number of patients [1]: 2

EC50s for the high sensitivity cell lines lower than the low sensitivity cell lines [4]: at least 100 fold
B1: MEDI-551: afucosylated form of the CD19 mAb anti-CD19-2, developed by humanization and affinity optimization of the HB12b mAb (antibody, chains of the INN, looked up, V domains shown)
VH: EVQLVESGGGLVQPGGSLRLSCAASGFTFSSSWMNWVRQAPGKGLEWVGRIYPGDGDTNYNVKFKGRFTISRDDSKNSLYLQMNSLKTEDTAVYYCARSGFITTVRDFDYWGQGTLVTVSS
VL: EIVLTQSPDFQSVTPKEKVTITCRASESVDTFGISFMNWFQQKPDQSPKLLIHEASNQGSGVPSRFSGSGSGTDFTLTINSLEAEDAATYYCQQSKEVPFTFGGGTKVEIK
modifications: afucosylated
sensitivity to anti-CD19 antibody treatment (ARH-77): low sensitivity | sensitivity to anti-CD19 antibody treatment (RL): low sensitivity | sensitivity to anti-CD19 antibody treatment (Karpas-422): highly sensitive | sensitivity to anti-CD19 antibody treatment (Karpas-422; listed as anti-CD19 antibody): high sensitivity | sensitivity to anti-CD19 antibody treatment (SUD-HL-6): high sensitivity | ADCC activity [2]: enhanced | reduced sensitivity to anti-CD19 antibody (MEC-2): 15-25% | reduced sensitivity to anti-CD19 antibody (Daudi): 15-25% | difference in cytotoxicity (Toledo): 15-20% | difference in cytotoxicity (SU-DHL-6): 15-20% | CR/PR (complete or partial response), number of patients ([3]; Chronic lymphocytic leukemia): 3 | PD (progressive disease), number of patients ([3]; Chronic lymphocytic leukemia): 3 | CR/PR (complete or partial response), number of patients ([3]; diffuse large B-cell lymphoma): 5 | PD (progressive disease), number of patients ([3]; diffuse large B-cell lymphoma): 10 | CR/PR (complete or partial response), number of patients ([3]; follicular lymphoma): 6 | PD (progressive disease), number of patients ([3]; follicular lymphoma): 2 | sensitivity to anti-CD19 antibody treatment (Toledo cell lines): high sensitivity | sensitivity to anti-CD19 antibody treatment [5]: low sensitivity | affinity to FccRIIIA (FccRIIIA): increased | CR/PR, number of patients [1]: 10 | PD, number of patients [1]: 3 | sensitivity to anti-CD19 antibody treatment (Oci-Ly-19): high sensitivity | shift in Ec50 for anti-CD19 antibody treatment in in vitro ADCC [6]: slight shift
